In patent US20160243521A1:

Columns and labels:
[1] = target: human polyclonal IgG (Gamma-globulin NICHIYAKU, NIHON PHARMACEUTICAL CO., LTD.) (human); assay: column dynamic binding capacity at 5% breakthrough, residence time 3 min (Test example 2); Protein A 35 g/L on cellulose beads made with crosslinking agent EX-314
[2] = target: human polyclonal IgG (Gamma-globulin NICHIYAKU, NIHON PHARMACEUTICAL CO., LTD.) (human); assay: column dynamic binding capacity at 5% breakthrough, residence time 3 min (Test example 2); Protein A 35 g/L on cellulose beads made without crosslinking agent in the dispersion

“non-orientation-controlled Protein A (from UniProt P38507 37-327) (ligand)” showed a 5% DBC at RT of 3 min (g per 1 L of the filling adsorbent) [1] of 65 and a 5% DBC at RT of 3 min (g per 1 L of the filling adsorbent) [2] of 49.
